Source: patent US20210130436A1 (published 2021)
Substitutions are numbered along the chain they refer to. Names and notes keep the numbering of the source.

B1: variant CD80 IgV-Fc M47V/K89N (Fc fusion, not shown: small tags and cut ends; a dimerising Fc or GST)
chain: VIHVTKEVKEVATLSCGHNVSVEELAQTRIYWQKEKKMVLTMMSGDVNIWPEYKNRTIFDITNNLSIVILALRPSDEGTYECVVLKYENDAFKREHLAEVTLSVKAD
B2: variant CD80 IgV-Fc M47V/V68M (Fc fusion, not shown: small tags and cut ends; a dimerising Fc or GST)
chain: B1 chain with V68M, N89K
B3: variant CD80 IgV-Fc V68M/L85Q (Fc fusion, not shown: small tags and cut ends; a dimerising Fc or GST)
chain: B1 chain with V47M, V68M, L85Q, N89K
B4: variant CD80 IgV-Fc V68M (Fc fusion, not shown: small tags and cut ends; a dimerising Fc or GST)
chain: B1 chain with V47M, V68M, N89K
B5: variant CD80 IgV-Fc M47V/N48K (Fc fusion, not shown: small tags and cut ends; a dimerising Fc or GST)
chain: B1 chain with N48K, N89K
B6: variant CD80 IgV-Fc N48K (Fc fusion, not shown: small tags and cut ends; a dimerising Fc or GST)
chain: B1 chain with V47M, N48K, N89K
B7: variant CD155 IgV-Fc S42L/S52Q/L104E (Fc fusion, not shown: a dimerising Fc or GST)
chain: WPPPGTGDVVVQAPTQVPGFLGDSVTLPCYLQVPNMEVTHVLQLTWARHGEQGSMAVFHQTQGPSYSESKRLEFVAARLGAELRNASLRMFGLRVEDEGNYTCEFVTFPQGSRSVDIWLRVL
B8: variant CD155 IgV-Fc S42W/S52Q/V57L/Q62Y (Fc fusion, not shown: a dimerising Fc or GST)
chain: B7 chain with L42W, V57L, Q62Y, E104L
B9: variant CD155 IgV-Fc S42N/S52Q/Q62F (Fc fusion, not shown: a dimerising Fc or GST)
chain: B7 chain with L42N, Q62F, E104L
B10: variant CD155 IgV-Fc S42A/S52Q/L104Q/G111R (Fc fusion, not shown: a dimerising Fc or GST)
chain: B7 chain with L42A, E104Q, G111R
B11: variant CD155 IgV-Fc S42A/S52L/L104E/G111R (Fc fusion, not shown: a dimerising Fc or GST)
chain: B7 chain with L42A, Q52L, G111R
B12: variant CD155 IgV-Fc S42A/L104Q/G111R (Fc fusion, not shown: a dimerising Fc or GST)
chain: B7 chain with L42A, Q52S, E104Q, G111R
B13: variant CD155 IgV-Fc S42L/S52L/Q62F/L104Q (Fc fusion, not shown: a dimerising Fc or GST)
chain: B7 chain with Q52L, Q62F, E104Q
B14: variant CD155 IgV-Fc S42Q (Fc fusion, not shown: a dimerising Fc or GST)
chain: B7 chain with L42Q, Q52S, E104L
B15: variant CD155 IgV-Fc S42W/S52R/Q62Y/L104Q (Fc fusion, not shown: a dimerising Fc or GST)
chain: B7 chain with L42W, Q52R, Q62Y, E104Q
B16: variant CD155 IgV-Fc Q62F (Fc fusion, not shown: a dimerising Fc or GST)
chain: B7 chain with L42S, Q52S, Q62F, E104L
B17: variant CD155 IgV-Fc S42W (Fc fusion, not shown: a dimerising Fc or GST)
chain: B7 chain with L42W, Q52S, E104L
B18: variant CD155 IgV-Fc Q62Y (Fc fusion, not shown: a dimerising Fc or GST)
chain: B7 chain with L42S, Q52S, Q62Y, E104L
B19: variant CD155 IgV-Fc S42N/L104Q/G111R (Fc fusion, not shown: a dimerising Fc or GST)
chain: B7 chain with L42N, Q52S, E104Q, G111R
B20: variant CD155 IgV-Fc S42C (Fc fusion, not shown: a dimerising Fc or GST)
chain: B7 chain with L42C, Q52S, E104L
B21: variant CD155 IgV-Fc Q62F/L104E/G111R (Fc fusion, not shown: a dimerising Fc or GST)
chain: B7 chain with L42S, Q52S, Q62F, G111R
B22: variant CD155 IgV-Fc S52L (Fc fusion, not shown: a dimerising Fc or GST)
chain: B7 chain with L42S, Q52L, E104L

Molecular target: T1, CD28 endogenously expressed on Jurkat/IL2 reporter cells (human, UniProt P10747 19-220)
T1 construct: also called Jurkats (CD28)
Experiment: flow cytometry, Jurkat cells (CD28)

Row | Binder | MFI at 33.3 nM [MFI]
1 | B1 | 197
2 | B2 | 328
3 | B3 | 91.7
4 | B4 | 37.9
5 | B5 | 413
6 | B6 | 60.1

Molecular target: T2, human PD-L1, full-length, on CHO cells (human, UniProt Q9NZQ7 19-290)
T2 construct: also called huPD-L1; CD274
Experiment: flow cytometry; PD-L1 MFI over CD28 MFI

T2 sequence (Q9NZQ7 19-290): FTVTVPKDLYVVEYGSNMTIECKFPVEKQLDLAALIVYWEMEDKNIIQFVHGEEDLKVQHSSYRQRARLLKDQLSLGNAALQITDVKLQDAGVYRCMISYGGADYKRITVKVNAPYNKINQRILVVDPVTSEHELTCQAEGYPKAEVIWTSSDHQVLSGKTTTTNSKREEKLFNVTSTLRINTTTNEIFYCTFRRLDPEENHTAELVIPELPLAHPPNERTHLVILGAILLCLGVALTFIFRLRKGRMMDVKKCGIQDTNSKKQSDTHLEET

Row | Binder | Ratio of PDL1:CD28 [ratio]
7 | B1 | 3.2
8 | B2 | 13.1
9 | B3 | 3.8
10 | B4 | 3.1
11 | B5 | 7.5
12 | B6 | 8

Molecular target: T3, human CTLA4 (CTLA-4), full-length, on CHO cells (human, UniProt P16410 36-223)
T3 construct: also called huCTLA4
Experiment: flow cytometry, CHO cells stably expressing CTLA4

T3 sequence (P16410 36-223): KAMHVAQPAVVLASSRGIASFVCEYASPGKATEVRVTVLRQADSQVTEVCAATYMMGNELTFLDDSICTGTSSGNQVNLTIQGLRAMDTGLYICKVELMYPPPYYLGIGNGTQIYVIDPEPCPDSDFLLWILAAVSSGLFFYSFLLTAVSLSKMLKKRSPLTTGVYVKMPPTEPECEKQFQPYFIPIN

Row | Binder | MFI at 33.3 nM [MFI]
13 | B1 | 32400
14 | B2 | 7280
15 | B3 | 3290
16 | B4 | 568
17 | B5 | 44600
18 | B6 | 4950

Molecular target: T2, human PD-L1, full-length, on CHO cells
Experiment: flow cytometry, CHO cells stably expressing PD-L1

Row | Binder | MFI at 33.3 nM [MFI]
19 | B1 | 622
20 | B2 | 4290
21 | B3 | 347
22 | B4 | 118
23 | B5 | 3080
24 | B6 | 481

Molecular target: T4, CD96 (UniProt P40200 22-585, limits assumed)
T4 construct: whole, on cells
T4 sequence (looked up): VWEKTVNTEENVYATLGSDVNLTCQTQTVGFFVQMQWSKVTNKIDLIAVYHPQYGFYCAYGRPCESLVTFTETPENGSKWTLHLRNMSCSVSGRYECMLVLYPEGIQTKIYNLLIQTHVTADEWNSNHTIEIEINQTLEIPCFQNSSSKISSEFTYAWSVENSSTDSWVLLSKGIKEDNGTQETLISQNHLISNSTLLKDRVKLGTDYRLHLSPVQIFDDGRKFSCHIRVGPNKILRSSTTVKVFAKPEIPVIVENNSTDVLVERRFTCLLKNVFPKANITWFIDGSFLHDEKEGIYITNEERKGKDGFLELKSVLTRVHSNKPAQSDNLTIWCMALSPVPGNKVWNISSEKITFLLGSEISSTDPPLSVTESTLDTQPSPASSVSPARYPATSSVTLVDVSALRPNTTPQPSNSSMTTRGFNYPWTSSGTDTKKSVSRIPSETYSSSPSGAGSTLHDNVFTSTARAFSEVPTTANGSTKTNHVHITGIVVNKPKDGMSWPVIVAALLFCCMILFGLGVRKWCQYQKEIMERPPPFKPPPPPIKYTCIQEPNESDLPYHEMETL
Experiment: flow cytometry, Fc fusion at 100 nM, CD96-transfected cells

Row | Binder | MFI at 100 nM [MFI]
25 | B7 | 1700
26 | B8 | 1700
27 | B9 | 1740
28 | B10 | 1640
29 | B11 | 1610
30 | B12 | 1700
31 | B13 | 2320
32 | B14 | 2140
33 | B15 | 1760
34 | B16 | 2760
35 | B17 | 2560
36 | B18 | 1830
37 | B19 | 1960
38 | B20 | 1590
39 | B21 | 1520

Molecular target: T5, CD226 (Homo sapiens (Human), UniProt Q15762 19-336)
T5 sequence: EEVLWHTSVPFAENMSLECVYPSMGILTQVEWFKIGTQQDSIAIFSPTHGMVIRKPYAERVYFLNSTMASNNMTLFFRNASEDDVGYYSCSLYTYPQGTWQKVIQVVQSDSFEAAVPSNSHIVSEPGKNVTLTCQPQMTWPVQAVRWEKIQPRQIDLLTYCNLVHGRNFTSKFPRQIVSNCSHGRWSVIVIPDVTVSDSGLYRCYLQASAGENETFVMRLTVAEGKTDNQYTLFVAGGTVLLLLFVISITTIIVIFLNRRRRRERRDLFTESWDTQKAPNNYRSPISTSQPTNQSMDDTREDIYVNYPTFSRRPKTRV
Experiment: flow cytometry, Fc fusion at 100 nM, CD226-transfected cells

Row | Binder | MFI at 100 nM [MFI]
40 | B22 | 2680
41 | B7 | 6470
42 | B8 | 2140
43 | B9 | 2150
44 | B10 | 2160
45 | B11 | 1890
46 | B12 | 1900
47 | B13 | 2640
48 | B14 | 2230
49 | B15 | 2300
50 | B16 | 2570
51 | B17 | 2130
52 | B18 | 2620
53 | B19 | 2310
54 | B20 | 2100
55 | B21 | 2040

Molecular target: T6, TIGIT (Homo sapiens (Human), UniProt Q495A1 22-244)
T6 sequence: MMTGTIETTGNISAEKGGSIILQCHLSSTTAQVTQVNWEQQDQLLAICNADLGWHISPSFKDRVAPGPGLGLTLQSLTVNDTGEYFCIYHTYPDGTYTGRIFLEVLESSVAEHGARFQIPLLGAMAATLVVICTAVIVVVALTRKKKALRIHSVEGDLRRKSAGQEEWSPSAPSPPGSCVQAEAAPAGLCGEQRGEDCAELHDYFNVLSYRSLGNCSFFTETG
Experiment: flow cytometry, Fc fusion at 100 nM, TIGIT-transfected cells

Row | Binder | MFI at 100 nM [MFI]
56 | B22 | 2220
57 | B7 | 1950
58 | B8 | 1960
59 | B9 | 2400
60 | B10 | 1810
61 | B11 | 2260
62 | B12 | 1920
63 | B13 | 2020
64 | B14 | 2070
65 | B15 | 1920
66 | B16 | 2210
67 | B17 | 2430
68 | B18 | 2530
69 | B19 | 2430
70 | B20 | 1910
71 | B21 | 1970

Molecular target: T3, human CTLA4 (CTLA-4), full-length, on …
Experiment: flow cytometry, CHO/CTLA4 cells; MFI relative to WT CD80 ECD-Fc

Row | Binder | Fold change to WT CD80 [fold]
72 | B1 | 0.8
73 | B2 | 0.2
74 | B3 | 0.1
75 | B4 | 0
76 | B5 | 1.1
77 | B6 | 0.1

Molecular target: T2, human PD-L1, full-length, on CHO cells
Experiment: flow cytometry, CHO/PD-L1 cells; MFI relative to WT CD80 ECD-Fc

Row | Binder | Fold change to WT CD80 [fold]
78 | B1 | 4.9
79 | B2 | 33.5
80 | B3 | 2.7
81 | B4 | 0.9
82 | B5 | 24.1
83 | B6 | 3.8

Molecular target: T1, CD28 endogenously expressed on …
Experiment: flow cytometry, Jurkat cells (CD28); MFI relative to WT CD80 ECD-Fc

Row | Binder | Fold change to WT CD80 [fold]
84 | B1 | 0.3
85 | B2 | 0.5
86 | B3 | 0.1
87 | B4 | 0.1
88 | B5 | 0.6
89 | B6 | 0.1
